For test [1], the target named is Flag RbAp46 (Xenopus, recombinant) (Xenopus laevis (African clawed frog), UniProt Q8AVH1). As to the kind of experiment: GST-CENP-A tail resin pull-down (bridged), Coomassie; inferred from RbAp46-dependent recovery of Hat1 on the immobilized GST-CENP-A N-terminal tail (1-50); no direct two-protein test.
The target of test [2] is T1, GST fusion to Xenopus laevis CENP-A amino terminus (amino acids 1–50) (Xenopus laevis (African clawed frog), UniProt Q569M3).
T1 chain: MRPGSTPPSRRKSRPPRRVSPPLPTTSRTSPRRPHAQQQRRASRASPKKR
As to the kind of experiment: GST-tail resin pull-down, Coomassie.

B1: Flag Hat1 (Xenopus, recombinant) (protein)
chain: MEKKLAEYKCNTNEAIQLKLVRFPEDIEDESMTFNPEYSHQIFGDEEVAFGYKGLKILLYYSAGNLSTMFRVQYSSKVNDKFDLVQPDDVENKIHELIPAGFCSGTDDFITLLEKEVNFKPFGTIVHTYTVHNEDAGEDISYQIYKADMTSPGFREYHERLQTFMMWFIETASYIDVDDEKWDYFLVFEKYNKDGATLFATVGYMTVYNYYVYPDKTRPRVSQMLVLPPFQGEGHGAQLMETVHRYYVSAPNILDITAEDPSENFVRLRDFVLVKLCQNLPCFSPEKLLCGFSKEMVTEAQEKLKINKKHARRVYEILRLRATDMSDPEKSKAYRLDVKKRLVGPYKKNQREMAKMQQCLRPEELTNQMNQIDLNTQHEQLEESYQQLVEEYRRIVERLAQA
Take B1: the binding result in test [1] is given as “binds”.

B2: Flag RbAp46 (Xenopus, recombinant) (protein)
chain: MANKEMFEDTVEERVINEEYKIWKKNTPFLYDLVMTHALEWPSLTVQWLPDVTRPEGKDYALHWLVLGTHTSDEQNHLVVARVQVPNDDAQFDASHYDSEKGEFGGFGSVSGKIETEIKINHEGEVNRARYMPQNPCIIATKTPSADVLVFDYTKHPSKPDPSGECSPDLRLRGHQKEGYGLSWNSNLSGHLLSASDDHTVCLWDISAGPKEGKVVDAKAVFTGHSAVVEDVAWHLLHESLFGSVADDQKLMIWDTRSNTTSKPSHSVDAHTAEVNCLSFNPYSEFILATGSADKTVALWDLRNLKLKLHSFESHKDEIFQVHWSPHNETILASSGTDRRLNVWDLSKIGEEQSAEDAEDGPPELLFIHGGHTAKISDFSWNPNEPWVICSVSEDNIMQIWQMAENIYNDEEPDIPASELEAQGS
Consider B2, for which the binding result in test [2] is reported as “binds”.

These data come from publication PMC5097169 (2016).
